Experimental findings from patent publication US20180186890A1 (UNITED STATES OF AMERICA AS REPRESENTED BY THE SECRETARY …, published 2018) are described below.

The target of the assay is T1, mouse CD276 expressed on the cell surface (mouse, UniProt Q8VE98 29-316).
T1 construct: whole, on cells; also called CHO-msCD276; host CD276 on tumor vasculature of CD276 WT mice
T1 sequence (looked up): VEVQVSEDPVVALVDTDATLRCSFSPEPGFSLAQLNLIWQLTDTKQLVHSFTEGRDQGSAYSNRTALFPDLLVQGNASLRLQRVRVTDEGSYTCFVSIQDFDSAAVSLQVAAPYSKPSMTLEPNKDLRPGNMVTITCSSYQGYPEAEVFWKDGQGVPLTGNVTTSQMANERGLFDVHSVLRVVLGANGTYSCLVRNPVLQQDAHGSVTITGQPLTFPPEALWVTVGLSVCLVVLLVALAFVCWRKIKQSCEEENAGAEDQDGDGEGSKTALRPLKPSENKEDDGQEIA
Nature of the assay: immunofluorescence of tumor vasculature after IP injection; no green staining in CD276 KO mice.

B1: FITC-labeled human anti-CD276 antibody m8524 IgG1 (antibody, V domains shown)
VH: QVQLQQSGAEVKKPGSSVKVSCKASGGTFSSYAISWVRQAPGQGLEWMGGIIPILGIANYAQKFQGRVTITADESTSTAYMELSSLRSEDTAVYYCARGGSGSYHMDVWGKGTTVTVSS
VL: EIVLTQSPATLSLSPGERATLSCRASQSVSSYLAWYQQKPGQAPRLLIYDASNRATGIPARFSGSGSGTDFTLTISSLEPEDFAVYYCQQRSNWPPRITFGQGTRLEIK
modifications: FITC-labeled antibody (site not stated)
notes: IgG1; also called anti-CD276 mAb
As to B1, the binding result is recorded as “binds”.
